Measured values as given in paper PMC9169624, “Human HELB is a processive motor protein that catalyzes RPA clearance from single-stranded DNA” (Proceedings of the National Academy of Sciences of the …, 2022).

Target: human Replication Protein A (RPA) complex (human) (UniProt P27694)
Sequence (P27694 whole entry, chain 1 of 3): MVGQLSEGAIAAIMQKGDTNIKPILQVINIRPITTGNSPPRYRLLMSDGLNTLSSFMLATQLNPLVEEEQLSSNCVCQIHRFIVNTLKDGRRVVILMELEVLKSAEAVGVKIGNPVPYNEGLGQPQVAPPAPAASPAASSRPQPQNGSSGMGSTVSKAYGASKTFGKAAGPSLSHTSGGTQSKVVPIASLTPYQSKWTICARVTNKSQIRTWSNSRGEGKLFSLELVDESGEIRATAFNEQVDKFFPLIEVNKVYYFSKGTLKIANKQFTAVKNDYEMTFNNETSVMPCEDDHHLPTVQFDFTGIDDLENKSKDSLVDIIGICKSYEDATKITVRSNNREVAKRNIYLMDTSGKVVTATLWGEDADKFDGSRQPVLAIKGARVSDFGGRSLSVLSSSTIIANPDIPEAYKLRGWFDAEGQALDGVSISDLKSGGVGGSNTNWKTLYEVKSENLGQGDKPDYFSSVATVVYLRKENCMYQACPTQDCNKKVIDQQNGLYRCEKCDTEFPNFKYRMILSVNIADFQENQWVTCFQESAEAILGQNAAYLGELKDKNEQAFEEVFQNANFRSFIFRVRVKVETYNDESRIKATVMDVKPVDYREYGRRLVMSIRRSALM
Sequence (P15927 whole entry, chain 2 of 3, further chain): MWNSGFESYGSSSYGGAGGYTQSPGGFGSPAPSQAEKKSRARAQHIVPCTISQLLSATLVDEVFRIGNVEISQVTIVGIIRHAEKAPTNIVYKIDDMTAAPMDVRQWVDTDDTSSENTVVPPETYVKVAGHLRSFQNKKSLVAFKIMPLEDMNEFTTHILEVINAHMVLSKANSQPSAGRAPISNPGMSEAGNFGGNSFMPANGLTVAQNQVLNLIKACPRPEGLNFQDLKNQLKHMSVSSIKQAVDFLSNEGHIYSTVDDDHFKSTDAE
Sequence (P35244 whole entry, chain 3 of 3, further chain): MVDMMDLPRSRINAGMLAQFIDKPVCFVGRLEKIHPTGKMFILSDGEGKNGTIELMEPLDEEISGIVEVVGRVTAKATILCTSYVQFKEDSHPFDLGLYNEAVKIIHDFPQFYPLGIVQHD

Human DNA helicase B (HELB), sequence (Q8NG08 whole entry): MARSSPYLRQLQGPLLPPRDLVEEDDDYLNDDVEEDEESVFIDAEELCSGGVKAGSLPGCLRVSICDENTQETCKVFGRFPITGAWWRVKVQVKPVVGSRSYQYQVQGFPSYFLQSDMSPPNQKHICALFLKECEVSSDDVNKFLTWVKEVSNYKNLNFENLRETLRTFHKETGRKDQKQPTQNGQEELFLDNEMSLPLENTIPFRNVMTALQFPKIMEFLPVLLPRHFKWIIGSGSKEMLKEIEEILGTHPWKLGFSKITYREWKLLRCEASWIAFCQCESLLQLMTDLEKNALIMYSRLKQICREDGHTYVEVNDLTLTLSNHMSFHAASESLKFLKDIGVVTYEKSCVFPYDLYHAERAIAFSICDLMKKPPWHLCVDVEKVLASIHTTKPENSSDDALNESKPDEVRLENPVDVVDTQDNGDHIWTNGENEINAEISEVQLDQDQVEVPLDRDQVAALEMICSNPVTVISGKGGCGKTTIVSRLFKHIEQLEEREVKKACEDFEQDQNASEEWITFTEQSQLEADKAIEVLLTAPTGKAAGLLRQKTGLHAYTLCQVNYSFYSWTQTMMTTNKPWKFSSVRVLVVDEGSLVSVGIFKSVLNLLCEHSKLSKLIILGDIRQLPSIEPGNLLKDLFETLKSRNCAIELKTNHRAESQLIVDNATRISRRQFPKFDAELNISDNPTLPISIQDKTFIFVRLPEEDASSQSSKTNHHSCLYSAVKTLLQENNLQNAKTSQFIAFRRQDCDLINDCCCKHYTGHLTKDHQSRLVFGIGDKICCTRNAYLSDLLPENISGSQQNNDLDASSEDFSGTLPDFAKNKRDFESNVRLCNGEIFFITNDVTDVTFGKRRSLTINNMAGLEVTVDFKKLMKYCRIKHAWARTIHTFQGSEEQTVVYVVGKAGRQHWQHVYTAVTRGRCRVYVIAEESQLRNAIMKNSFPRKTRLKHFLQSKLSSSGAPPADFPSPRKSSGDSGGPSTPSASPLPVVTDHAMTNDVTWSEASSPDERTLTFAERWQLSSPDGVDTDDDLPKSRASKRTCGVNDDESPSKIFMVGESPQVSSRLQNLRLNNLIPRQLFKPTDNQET

observed rate of ATP hydrolysis by HELB at low φX174 ssDNA (0.1 × KDNA), RPA titrated from one RPA per 200 nt to one RPA per 20 nt: 8 fold
Substance: Human DNA helicase B (HELB) (from UniProt Q8NG08 1-1087) (enzyme)
